The text below walks through data of US20060263802A1 (CRUCELL HOLLAND B V, published 2006).

Test in all cases: PEPSCAN ELISA, looped 15-mer, 10 ug/ml
A general note: In an ELISA, binding on a coated surface is turned into a signal by an enzyme label.

The target in test [1] is looped peptide … (rabies virus strain ERA).
For test [2] the target is unchanged. This is another data set of the same source.
Test [3] has the same target. The source holds these as a separate data set.
Test [4] deals with looped peptide […] (rabies virus strain ERA).
Test [5] has the same target. This is another data set of the same source.
For test [6] the target is unchanged. This is another data set of the same source.
Test [7] shares this target. The source holds these as a separate data set.
Test [8] has as its target looped peptide … (rabies virus strain ERA). The source holds these as a separate data set.
Test [9] shares this target. The source holds these as a separate data set.
For test [10] the target is unchanged. The source holds these as a separate data set.
Test [11] has the same target. This is another data set of the same source.
For test [12], the target named is looped peptide […] (rabies virus strain ERA). The source holds these as a separate data set.
Test [13] has the same target. This is another data set of the same source.

B1: human monoclonal antibody CRJA (antibody, V domains shown)
VH: EVQLLESGGGLVQPGGSLRLSCAASGFTFSNYAMSWVRQAPGKGLEWVSAISASGHSTYLADSVKGRFTISRDNSKNTLYLQMNSLRAEDTAVYYCAKDREVTMIVVLNGGFDYWGQGTRVTVSS
VL: EIVLTQSPATLSLSPGERATLACRASQTASRYLAWYQQKPGQAPRLLIYDTSNRATGIPARFSGSGSGTDFTLSISSLEPEDFAVYYCQQRFNWPWTFGQGTKVEFK
For the molecule B1, the OD value in test [1] is 90; in [2], 50; in [3], 82; in the test with looped peptide […] [4] it was 123; with looped peptide […] [5], 93; with looped peptide […] [6], 320. Moreover, the OD value in the test with looped peptide […] [7] stood at 152; in test [8] it was 71; in test [9], 79; in test [10], 54; in [11], 87; in the test with looped peptide […] [12], 468. This molecule yielded an OD value with looped peptide […] [13] of 164.
